Laboratory results reported in the Human Domainome abundance scans (Beltran et al. 2025).
± gives the uncertainty stated by the source.

Test: abundance fitness (aPCA) (normalised: wild type 0, dead -1); higher = more abundant; growth selection in yeast, the domain comes from the species named
Conditions: Homo sapiens

“Scaffold attachment factor B1 N47T, Q15424” and “Scaffold attachment factor B1 N47V, Q15424” are within error of each other in abundance fitness: -0.331 ± 0.066 for the first, -0.448 ± 0.056 for the second.

“Scaffold attachment factor B1 N47W, Q15424” and “Scaffold attachment factor B1 N47Y, Q15424” are within error of each other in abundance fitness: -0.593 ± 0.079 for the first, -0.483 ± 0.088 for the second.

“Scaffold attachment factor B1 N53A, Q15424” and “Scaffold attachment factor B1 N53C, Q15424” are within error of each other in abundance fitness: -0.175 ± 0.056 for the first, -0.138 ± 0.083 for the second.

Going from “Scaffold attachment factor B1 N53D, Q15424” to “Scaffold attachment factor B1 N53E, Q15424”, the abundance fitness falls from -0.038 ± 0.068 to -0.198 ± 0.087.

Compared with “Scaffold attachment factor B1 N53F, Q15424”, “Scaffold attachment factor B1 N53G, Q15424” is higher in abundance fitness: -0.354 ± 0.048 for the first, -0.08 ± 0.057 for the second.

“Scaffold attachment factor B1 N53H, Q15424” and “Scaffold attachment factor B1 N53I, Q15424” are within error of each other in abundance fitness: -0.127 ± 0.071 for the first, -0.27 ± 0.084 for the second.

“Scaffold attachment factor B1 N53M, Q15424” and “Scaffold attachment factor B1 N53P, Q15424” are within error of each other in abundance fitness: -0.376 ± 0.063 for the first, -0.284 ± 0.06 for the second.

Compared with “Scaffold attachment factor B1 N53Q, Q15424”, “Scaffold attachment factor B1 N53R, Q15424” is higher in abundance fitness: -0.288 ± 0.089 for the first, -0.067 ± 0.049 for the second.

“Scaffold attachment factor B1 N53S, Q15424” and “Scaffold attachment factor B1 N53V, Q15424” are within error of each other in abundance fitness: -0.085 ± 0.051 for the first, -0.158 ± 0.056 for the second.

Compared with “Scaffold attachment factor B1 N53W, Q15424”, “Scaffold attachment factor B1 N71A, Q15424” is higher in abundance fitness: -0.712 ± 0.059 for the first, -0.329 ± 0.071 for the second.

“Scaffold attachment factor B1 N71C, Q15424” and “Scaffold attachment factor B1 N71D, Q15424” are within error of each other in abundance fitness: -0.207 ± 0.07 for the first, -0.247 ± 0.1 for the second.

“Scaffold attachment factor B1 N71E, Q15424” and “Scaffold attachment factor B1 N71F, Q15424” are within error of each other in abundance fitness: -0.36 ± 0.072 for the first, -0.338 ± 0.068 for the second.

“Scaffold attachment factor B1 N71H, Q15424” and “Scaffold attachment factor B1 N71I, Q15424” are within error of each other in abundance fitness: -0.309 ± 0.1 for the first, -0.468 ± 0.1 for the second.

“Scaffold attachment factor B1 N71K, Q15424” and “Scaffold attachment factor B1 N71L, Q15424” are within error of each other in abundance fitness: -0.253 ± 0.073 for the first, -0.299 ± 0.062 for the second.

“Scaffold attachment factor B1 N71M, Q15424” and “Scaffold attachment factor B1 N71P, Q15424” are within error of each other in abundance fitness: -0.3 ± 0.057 for the first, -0.365 ± 0.076 for the second.

“Scaffold attachment factor B1 N71Q, Q15424” and “Scaffold attachment factor B1 N71S, Q15424” are within error of each other in abundance fitness: -0.263 ± 0.095 for the first, -0.19 ± 0.063 for the second.

“Scaffold attachment factor B1 N71T, Q15424” and “Scaffold attachment factor B1 N71V, Q15424” are within error of each other in abundance fitness: -0.267 ± 0.092 for the first, -0.211 ± 0.055 for the second.

“Scaffold attachment factor B1 N71W, Q15424” and “Scaffold attachment factor B1 N71Y, Q15424” are within error of each other in abundance fitness: -0.39 ± 0.057 for the first, -0.448 ± 0.094 for the second.

“Scaffold attachment factor B1 P72A, Q15424” and “Scaffold attachment factor B1 P72C, Q15424” are within error of each other in abundance fitness: -0.187 ± 0.07 for the first, -0.103 ± 0.061 for the second.

“Scaffold attachment factor B1 P72D, Q15424” and “Scaffold attachment factor B1 P72E, Q15424” are within error of each other in abundance fitness: -0.407 ± 0.1 for the first, -0.302 ± 0.068 for the second.

“Scaffold attachment factor B1 P72F, Q15424” and “Scaffold attachment factor B1 P72G, Q15424” are within error of each other in abundance fitness: -0.185 ± 0.098 for the first, -0.11 ± 0.048 for the second.

Compared with “Scaffold attachment factor B1 P72H, Q15424”, “Scaffold attachment factor B1 P72I, Q15424” is lower in abundance fitness: -0.149 ± 0.073 for the first, -0.382 ± 0.11 for the second.

Going from “Scaffold attachment factor B1 P72K, Q15424” to “Scaffold attachment factor B1 P72L, Q15424”, the abundance fitness rises from -0.423 ± 0.091 to -0.14 ± 0.048.

“Scaffold attachment factor B1 P72M, Q15424” and “Scaffold attachment factor B1 P72N, Q15424” are within error of each other in abundance fitness: -0.362 ± 0.08 for the first, -0.374 ± 0.11 for the second.

Going from “Scaffold attachment factor B1 P72Q, Q15424” to “Scaffold attachment factor B1 P72R, Q15424”, the abundance fitness rises from -0.432 ± 0.098 to -0.23 ± 0.052.

“Scaffold attachment factor B1 P72S, Q15424” and “Scaffold attachment factor B1 P72T, Q15424” are within error of each other in abundance fitness: -0.197 ± 0.058 for the first, -0.329 ± 0.085 for the second.

Going from “Scaffold attachment factor B1 P72V, Q15424” to “Scaffold attachment factor B1 P72W, Q15424”, the abundance fitness falls from -0.116 ± 0.053 to -0.296 ± 0.068.

Compared with “Scaffold attachment factor B1 P72Y, Q15424”, “Scaffold attachment factor B1 R29A, Q15424” is lower in abundance fitness: -0.176 ± 0.06 for the first, -0.465 ± 0.072 for the second.

First: Scaffold attachment factor B1 R29C, Q15424
Second: Scaffold attachment factor B1 R29D, Q15424
The abundance fitness of the first is higher: -0.107 ± 0.073 for the first, -0.37 ± 0.091 for the second.

“Scaffold attachment factor B1 R29E, Q15424” and “Scaffold attachment factor B1 R29F, Q15424” are within error of each other in abundance fitness: -0.143 ± 0.068 for the first, -0.03 ± 0.06 for the second.

“Scaffold attachment factor B1 R29G, Q15424” and “Scaffold attachment factor B1 R29H, Q15424” are within error of each other in abundance fitness: -0.18 ± 0.049 for the first, -0.262 ± 0.088 for the second.

“Scaffold attachment factor B1 R29I, Q15424” and “Scaffold attachment factor B1 R29K, Q15424” are within error of each other in abundance fitness: -0.019 ± 0.062 for the first, -0.086 ± 0.083 for the second.

Going from “Scaffold attachment factor B1 R29L, Q15424” to “Scaffold attachment factor B1 R29M, Q15424”, the abundance fitness rises from -0.134 ± 0.048 to 0.03 ± 0.077.

“Scaffold attachment factor B1 R29N, Q15424” and “Scaffold attachment factor B1 R29P, Q15424” are within error of each other in abundance fitness: -0.408 ± 0.1 for the first, -0.364 ± 0.063 for the second.

“Scaffold attachment factor B1 R29Q, Q15424” and “Scaffold attachment factor B1 R29S, Q15424” are within error of each other in abundance fitness: -0.222 ± 0.089 for the first, -0.189 ± 0.063 for the second.

“Scaffold attachment factor B1 R29T, Q15424” and “Scaffold attachment factor B1 R29V, Q15424” are within error of each other in abundance fitness: -0.141 ± 0.062 for the first, -0.08 ± 0.059 for the second.

Compared with “Scaffold attachment factor B1 R29Y, Q15424”, “Scaffold attachment factor B1 R30A, Q15424” is lower in abundance fitness: -0.056 ± 0.076 for the first, -0.289 ± 0.066 for the second.

“Scaffold attachment factor B1 R30C, Q15424” and “Scaffold attachment factor B1 R30D, Q15424” are within error of each other in abundance fitness: -0.409 ± 0.1 for the first, -0.384 ± 0.092 for the second.

“Scaffold attachment factor B1 R30E, Q15424” and “Scaffold attachment factor B1 R30G, Q15424” are within error of each other in abundance fitness: -0.252 ± 0.06 for the first, -0.31 ± 0.061 for the second.

Going from “Scaffold attachment factor B1 R30H, Q15424” to “Scaffold attachment factor B1 R30I, Q15424”, the abundance fitness falls from -0.16 ± 0.063 to -0.33 ± 0.073.

Going from “Scaffold attachment factor B1 R30K, Q15424” to “Scaffold attachment factor B1 R30L, Q15424”, the abundance fitness falls from -0.037 ± 0.066 to -0.218 ± 0.051.

Going from “Scaffold attachment factor B1 R30M, Q15424” to “Scaffold attachment factor B1 R30N, Q15424”, the abundance fitness falls from -0.206 ± 0.077 to -0.411 ± 0.1.

First: Scaffold attachment factor B1 R30P, Q15424
Second: Scaffold attachment factor B1 R30Q, Q15424
The abundance fitness of the first is lower: -0.545 ± 0.094 for the first, -0.25 ± 0.082 for the second.

Compared with “Scaffold attachment factor B1 R30S, Q15424”, “Scaffold attachment factor B1 R30V, Q15424” is lower in abundance fitness: -0.133 ± 0.062 for the first, -0.493 ± 0.052 for the second.

“Scaffold attachment factor B1 R30W, Q15424” and “Scaffold attachment factor B1 R30Y, Q15424” are within error of each other in abundance fitness: -0.444 ± 0.053 for the first, -0.383 ± 0.086 for the second.

Going from “Scaffold attachment factor B1 R35A, Q15424” to “Scaffold attachment factor B1 R35C, Q15424”, the abundance fitness falls from -0.112 ± 0.059 to -0.4 ± 0.073.

“Scaffold attachment factor B1 R35D, Q15424” and “Scaffold attachment factor B1 R35E, Q15424” are within error of each other in abundance fitness: -0.12 ± 0.08 for the first, -0.195 ± 0.083 for the second.

“Scaffold attachment factor B1 R35F, Q15424” and “Scaffold attachment factor B1 R35H, Q15424” are within error of each other in abundance fitness: -0.59 ± 0.082 for the first, -0.475 ± 0.089 for the second.

Compared with “Scaffold attachment factor B1 R35I, Q15424”, “Scaffold attachment factor B1 R35K, Q15424” is higher in abundance fitness: -0.556 ± 0.08 for the first, -0.217 ± 0.083 for the second.

First: Scaffold attachment factor B1 R35L, Q15424
Second: Scaffold attachment factor B1 R35M, Q15424
The abundance fitness of the first is lower: -0.316 ± 0.063 for the first, -0.147 ± 0.072 for the second.

“Scaffold attachment factor B1 R35P, Q15424” and “Scaffold attachment factor B1 R35Q, Q15424” are within error of each other in abundance fitness: -0.288 ± 0.081 for the first, -0.136 ± 0.077 for the second.

First: Scaffold attachment factor B1 R35S, Q15424
Second: Scaffold attachment factor B1 R35T, Q15424
The abundance fitness of the first is lower: -0.136 ± 0.068 for the first, 0.014 ± 0.064 for the second.

Compared with “Scaffold attachment factor B1 R35V, Q15424”, “Scaffold attachment factor B1 R35W, Q15424” is lower in abundance fitness: -0.28 ± 0.054 for the first, -0.645 ± 0.079 for the second.

First: Scaffold attachment factor B1 R40A, Q15424
Second: Scaffold attachment factor B1 R40C, Q15424
The abundance fitness of the first is higher: -0.272 ± 0.065 for the first, -0.642 ± 0.085 for the second.

Going from “Scaffold attachment factor B1 R40D, Q15424” to “Scaffold attachment factor B1 R40F, Q15424”, the abundance fitness falls from -0.642 ± 0.096 to -0.822 ± 0.08.
